Consider one molecule from PMC9241776, “Azole Resistance-Associated Regulatory Motifs within the Promoter of cyp51A in Aspergillus fumigatus”.

In this series the target is T1, AtrR (Zn2Cys6 cluster and coiled-coil) (Aspergillus fumigatus, UniProt Q4WI89 50-160).
T1 sequence: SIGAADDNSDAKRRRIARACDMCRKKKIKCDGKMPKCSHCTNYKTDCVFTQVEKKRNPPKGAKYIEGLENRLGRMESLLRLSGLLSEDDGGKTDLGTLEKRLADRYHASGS
Briefly: SPR; largely unaffected; SPR as in earlier publications; binding buffer and temperature not in the material (SEC buffer for AtrR and SrbA: 20 mM HEPES, 150 mM NaCl); 1:1 model with mass transport. Particulars: protein: recombinant; tags: N-terminal MBP, removed by TEV; chain copies: 2. In general terms: In SPR one partner is held on a chip, and binding of the other changes the refractive index at the surface.

B1: Pcyp51A SrbA* (dsDNA)
DNA 1: TCTAGAATTCCGAAGTCCGGATGTGTGCTGAGCCGAATGAA
DNA 2: TTCATTCGGCTCAGCACACATCCGGACTTCGGAATTCTAGA
On to B1, for which the binding result was “binds”.
